US20180073089

Target: recombinant substrate protein VAMP-2 (2-94)-GFP (UniProt P63027)
Sequence (P63027 2-94): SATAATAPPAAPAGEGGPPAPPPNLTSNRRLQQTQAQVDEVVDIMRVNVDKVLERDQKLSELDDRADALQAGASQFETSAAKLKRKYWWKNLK

Substance: native BoNT/F (nBoNT/F) control
- % of cleaved product: 65% versus 46%
- specific activity: 26 nmol/h/pmol vs 18 nmol/h/pmol
